Publication PMC5750328, “Study on oligomerization of glutamate decarboxylase from Lactobacillus brevis using asymmetrical flow field-flow fractionation (AF4) with light scattering techniques” (Analytical and Bioanalytical Chemistry, 2017)

Tests used:
[1] = target: the molecule itself; assay: asymmetrical flow field-flow fractionation with UV, MALS and dRI detection (AF4-UV-MALS-dRI); self-association; carrier liquid 10 mM citrate-phosphate buffer pH 6, room temperature; relative amounts from deconvoluted UV fractograms at 280 nm
[2] = target: the molecule itself; assay: asymmetrical flow field-flow fractionation with UV, MALS and dRI detection (AF4-UV-MALS-dRI); self-association; carrier liquid 10 mM citrate-phosphate buffer pH 8, room temperature; relative amounts from deconvoluted UV fractograms at 280 nm

B1: glutamate decarboxylase (LbGadB) from Lactobacillus brevis DSM 1269, recombinant (enzyme, UniProt A9ZM78 1-480, looked up)
chain: MMNKNDQETQQMINNVDLEKTFLGSVEAGQSLPTYTLPDDPMAPDVAAQLVEHYRLNEAKANQNLATFCTTQMEPQADELMKNALNTNAIDKSEYPKTAAMENYCVSMIAHLWGIPDNEKIYDDFIGTSTVGSSEGCMLGGLALLHSWKHRAKAAGFDIEDLHSHKPNLVIMSGYQVVWEKFCTYWNVEMRQVPINGDQVSLDMDHVMDYVDENTIGIIGIEGITYTGSVDDIQTLDNLVTEYNKTATMPVRIHVDAAFGGLFAPFVDGFNPWDFRLKNVVSINVSGHKYGMVYPGLGWIVWRHDTADILPAEMRFQVPYLGKTVDSIAINFSHSGAHISAQYYNFIRFGLSGYKTIMQNVRKVSLKLTAALKTYGIFDILVDGSQLPINCWKLADDAPVGWTLYDLESELAKYGWQVPAYPLPKNRDDVTISRIVVRPSMTMTIADDFLDDLKLAIDGLNHTFGVTTTVDQDNKTTVRS
notes: glutamate decarboxylase LbGadB of Lactobacillus brevis DSM 1269; gene amplified from genomic DNA with a forward primer that holds the ATG (NdeI site) and a reverse primer with an XhoI site, cloned in pET21b; gene deposited as GenBank KX417371; Oligomeric state depends on pH: dimer at pH 7-8, hexamer at pH 6, so copies is left empty; the whole gene appears to have been cloned; Cloning NdeI/XhoI in …
For B1, the “stoichiometry N” value [1] was 6 and the “stoichiometry N” value [2] was 2.
